The source of these data is paper PMC10284548.

Experiment [1] concerns the target AsLOV2. Put plainly: single-molecule force spectroscopy (dual-beam optical tweezers); constant load of 11 or 16 pN under 488-nm light (laser intensity 3 and 30%, pooled); AsLOV2 and Zdk2 on one chain joined by (GGS)42; PBS, 1 mM TCEP, pH 7.4.
For experiment [2], the target named is AsLOV2. Description: single-molecule force spectroscopy (dual-beam optical tweezers); jump experiments between 0 and 20.5 ± 1 pN to obtain unbinding and rebinding lifetimes; AsLOV2 and Zdk2 on one chain joined by (GGS)42; PBS, 1 mM TCEP, pH 7.4.
Experiment [3] concerns the target AsLOV2(V416L). Described as above.
Experiment [4] addresses AsLOV2. Put plainly: single-molecule force spectroscopy (dual-beam optical tweezers); constant load of 11 or 16 pN, dark; AsLOV2 and Zdk2 on one chain joined by (GGS)42, tethered by DNA handles between two beads; PBS, 1 mM TCEP, pH 7.4.
In experiment [5] the target is AsLOV2. Put plainly: single-molecule force spectroscopy (dual-beam optical tweezers); constant velocity (force-extension) experiments, 200 and 500 nm/s; AsLOV2 and Zdk2 on one chain joined by (GGS)42, tethered by DNA handles between two beads; PBS, 1 mM TCEP, pH 7.4, oxygen scavenger; dark.
The target in experiment [6] is AsLOV2(V416L). The description is as above.

In the experiment with AsLOV2 [1], Zdk2 (designed binder) had an average lifetime of the bound state at 11 pN, with 488-nm light of 47 s and an average lifetime of the bound state at 16 pN, with 488-nm light of 45 s. Besides, in the experiment with AsLOV2 [2], the average lifetime of the peptide-bound state under force turned out to be 0.56 s and the rebinding time at zero force was 0.13 s. In addition, in the experiment with AsLOV2(V416L) [3], the average lifetime of the peptide-bound state under force was 0.18 s and the rebinding time at zero force is 0.44 s. In the experiment with AsLOV2 [4], this substance returned an average lifetime of the bound state at 11 pN, without light of 174 s; an average lifetime of the bound state at 16 pN, without light of 74 s; a percent of experiments at 11 pN without dissociation within 9 min of 30%. In the experiment with AsLOV2 [5], this substance displayed an unbinding force of 24 pN. In the experiment with AsLOV2(V416L) [6], the unbinding force is 22 pN.
